One may read the Kd as the concentration at which binding is half-saturated. A higher Kd goes with weaker binding.

The values that follow come from PMC8808184 (The Journal of Biological Chemistry, 2021).

B1: FN1–FN3 region of human CNTN4 (domain or fragment, UniProt Q8IWV2 599-899, looked up)
chain: PPEAVTIDEITDTTAQLSWRPGPDNHSPITMYVIQARTPFSVGWQAVSTVPELIDGKTFTATVVGLNPWVEYEFRTVAANVIGIGEPSRPSEKRRTEEALPEVTPANVSGGGGSKSELVITWETVPEELQNGRGFGYVVAFRPYGKMIWMLTVLASADASRYVFRNESVHPFSPFEVKVGVFNNKGEGPFSPTTVVYSAEEEPTKPPASIFARSLSATDIEVFWASPLEKNRGRIQGYEVKYWRHEDKEENARKIRTVGNQTSTKITNLKGSVLYHLAVKAYNSAGTGPSSATVNVTTRKP
notes: human contactin 4, FN1–FN3; source: E. coli BL21(DE3), purified (IMAC, 3C protease cleavage, ion exchange, gel filtration)
B2: E1 domain of human APLP2 (domain or fragment, UniProt Q06481 46-205, looked up)
chain: AVAEPQIAMFCGKLNMHVNIQTGKWEPDPTGTKSCFETKEEVLQYCQEMYPELQITNVMEANQRVSIDNWCRRDKKQCKSRFVTPFKCLVGEFVSDVLLVPEKCQFFHKERMEVCENHQHWHTVVKEACLTQGMTLYSYGMLLPCGVDQFHGTEYVCCPQ
modifications: biotin (EZ-Link NHS-PEG4-Biotin, 1:1 molar ratio)
notes: human amyloid beta precursor like protein 2, E1 domain; host and tags are those told for the E1 domains in general; source: E. coli Origami2(DE3), purified (as told for the E1 domains)

Assay in all cases: BLI; biotinylated E1 domain ([…] nM) immobilised on streptavidin tips, CNTN FN1–FN3 in solution; room temperature; 150 mM NaCl, 10 mM Na-Hepes pH 7.5, 1 mg/ml BSA, 0.02% Tween-20; BLItz or Octet K2; KD from the signal at equilibrium
Settings in all cases: both partners purified
(In general: In BLI a coated tip is dipped into the sample, and binding shifts an interference pattern.)

The target in experiment [1] is B2.
For experiment [2], the target named is T1, FN1–FN3 region of CNTN5 titrated against human APLP1(E1) and human APLP2(E1) ( (chicken, human, mouse and …, UniProt O94779 673-972)).
T1 construct: contactin 5, FN1–FN3; source: E. coli BL21(DE3), purified (IMAC, 3C protease cleavage, ion exchange, gel filtration)
T1 sequence (looked up): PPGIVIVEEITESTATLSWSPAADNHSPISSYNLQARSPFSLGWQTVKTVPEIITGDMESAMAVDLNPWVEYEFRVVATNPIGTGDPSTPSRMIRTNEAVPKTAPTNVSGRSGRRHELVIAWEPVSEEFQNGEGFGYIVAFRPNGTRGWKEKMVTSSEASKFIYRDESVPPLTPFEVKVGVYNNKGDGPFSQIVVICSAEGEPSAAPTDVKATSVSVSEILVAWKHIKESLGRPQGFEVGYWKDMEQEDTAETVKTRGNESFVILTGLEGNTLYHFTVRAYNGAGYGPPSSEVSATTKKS

For experiment [3], the target named is B1.

With B1, the “fold decrease in affinity against human CNTN4 with APLP1” value in experiment [1] is 4 fold.

For B2, the figures for the equilibrium dissociation constant (Kd) in experiment [2] and in experiment [3] were approximately 38 µM and 6.3 µM, respectively.
